# Substitutions are numbered along the chain they refer to. In names and notes the source's numbering stands.
# T1: TNFR1 (Homo sapiens, UniProt P19438)
# T1 chain: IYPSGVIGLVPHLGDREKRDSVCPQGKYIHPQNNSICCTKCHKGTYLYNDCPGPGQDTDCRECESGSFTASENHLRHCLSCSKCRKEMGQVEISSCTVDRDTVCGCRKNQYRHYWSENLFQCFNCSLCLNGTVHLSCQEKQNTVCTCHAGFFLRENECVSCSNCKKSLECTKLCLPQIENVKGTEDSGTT
# B1: A55V (designed binder)
# chain: SMEEEVEKAAKEYEKKKKEAIEKHLEKLKAKDKEAAERFLKELEEAAKEYAKDEVKTMSEEEAKRRAKKYKEKVLLSELSEEEQKEIKEAEEKLVRTILKYVEEAAK
# B2: E83T (designed binder)
# chain: B1 chain with V55A, E83T
# B3: K15S (designed binder)
# chain: B1 chain with K15S, V55A
# B4: A46V (designed binder)
# chain: B1 chain with A46V, V55A
# B5: E61F (designed binder)
# chain: B1 chain with V55A, E61F
# B6: K88W (designed binder)
# chain: B1 chain with V55A, K88W
# B7: A35W (designed binder)
# chain: B1 chain with A35W, V55A
# B8: Q84L (designed binder)
# chain: B1 chain with V55A, Q84L
# B9: K15I (designed binder)
# chain: B1 chain with K15I, V55A
# B10: E22M (designed binder)
# chain: B1 chain with E22M, V55A
# B11: M58L (designed binder)
# chain: B1 chain with V55A, M58L
# B12: E4K (designed binder)
# chain: B1 chain with E4K, V55A
# B13: K68G (designed binder)
# chain: B1 chain with V55A, K68G
# B14: E61I (designed binder)
# chain: B1 chain with V55A, E61I
# B15: I87M (designed binder)
# chain: B1 chain with V55A, I87M
# B16: E4C (designed binder)
# chain: B1 chain with E4C, V55A
# B17: A46R (designed binder)
# chain: B1 chain with A46R, V55A
# B18: Y70P (designed binder)
# chain: B1 chain with V55A, Y70P
# B19: K41V (designed binder)
# chain: B1 chain with K41V, V55A
# B20: K48D (designed binder)
# chain: B1 chain with K48D, V55A
# B21: K41I (designed binder)
# chain: B1 chain with K41I, V55A
# B22: D53V (designed binder)
# chain: B1 chain with D53V, V55A
# B23: E78W (designed binder)
# chain: B1 chain with V55A, E78W
# B24: K64T (designed binder)
# chain: B1 chain with V55A, K64T
# B25: K71Y (designed binder)
# chain: B1 chain with V55A, K71Y
# B26: H24A (designed binder)
# chain: B1 chain with H24A, V55A
# B27: K88E (designed binder)
# chain: B1 chain with V55A, K88E
# B28: S77W (designed binder)
# chain: B1 chain with V55A, S77W
# B29: E62G (designed binder)
# chain: B1 chain with V55A, E62G
# B30: T97K (designed binder)
# chain: B1 chain with V55A, T97K
# B31: Y101D (designed binder)
# chain: B1 chain with V55A, Y101D
# B32: E19V (designed binder)
# chain: B1 chain with E19V, V55A
# B33: E89H (designed binder)
# chain: B1 chain with V55A, E89H
# B34: E91I (designed binder)
# chain: B1 chain with V55A, E91I
# B35: K88V (designed binder)
# chain: B1 chain with V55A, K88V
# B36: K73W (designed binder)
# chain: B1 chain with V55A, K73W
# B37: R66E (designed binder)
# chain: B1 chain with V55A, R66E
# B38: E34A (designed binder)
# chain: B1 chain with E34A, V55A
# B39: K88Q (designed binder)
# chain: B1 chain with V55A, K88Q
# B40: E78R (designed binder)
# chain: B1 chain with V55A, E78R
# B41: K100M (designed binder)
# chain: B1 chain with V55A, K100M
# B42: E22N (designed binder)
# chain: B1 chain with E22N, V55A
# B43: L28K (designed binder)
# chain: B1 chain with L28K, V55A
# Target: T1, TNFR1
# Assay: yeast display SC50
row,apparent Kd (screen) [nM],Binder
1,3,B1
2,0.49,B2
3,0.653,B3
4,2.48,B4
5,0.718,B5
6,0.49,B6
7,1.86,B7
8,2.48,B8
9,0.869,B9
10,0.539,B10
11,2.73,B11
12,1.86,B12
13,1.27,B13
14,1.54,B14
15,10.4,B15
16,1.27,B16
17,1.54,B17
18,5.31,B18
19,0.446,B19
20,0.49,B20
21,0.539,B21
22,12.5,B22

row,apparent Kd (screen) [nM],Binder
1,2.73,B23
2,1.4,B24
3,1.05,B25
4,1.05,B26
5,0.49,B27
6,1.05,B28
7,2.25,B29
8,0.539,B30
9,0.446,B31
10,0.446,B32
11,1.69,B33
12,7.78,B34
13,0.79,B35
14,15.2,B36
15,18.3,B37
16,1.05,B38
17,0.49,B39
18,1.86,B40
19,1.05,B41
20,0.869,B42
21,1.54,B43
